Experimental findings from the supplement of paper PMC11316812 are described below.

± gives the standard deviation of the averaged measurements.

The subject of one data set is MCF7. Kind of data set: percentage of EdU-negative (G0-arrested) nuclei per well, 72 h; higher = more G0 arrest. The following applies: reference: sequence is the full UniProt precursor, the tested protein was the secreted form or ectodomain.
The next data set concerns hTERT-HMEC. The description is as above. Particulars: reference: sequence is the full UniProt precursor, the tested protein was the secreted form or ectodomain.
Setting [1] is: protein concentration 0.0257143 µM.
Setting [2] is: protein concentration 0.257143 µM.
Where [3] appears, read: protein concentration 0.0209225 µM.
[4] abbreviates: protein concentration 0.209225 µM.
The mark [5] stands for this setting: protein concentration 0.0225 µM.
Setting [6] is: protein concentration 0.01655 µM.
Setting [7] is: protein concentration 0.1655 µM.
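Also: secreted proteins added to cultured cells, EdU pulse at the end, nuclei found by Hoechst imaging, EdU status from nuclear versus surrounding ring intensity ratio, PBS as neutral control.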

Consider “MPGPSPGLRRALLGLWAALGLGLFGLSAVSQEPFWADLQPRVAFVERGGSLWLNCSTNCPRPERGGLETSLRRNGTQRGLRWLARQLVDIREPETQPVCFFRCARRTLQARGLIRTFQRPDRVELMPLPPWQPVGENFTLSCRVPGAGPRASLTLTLLRGAQELIRRSFAGEPPRARGAVLTATVLARREDHGANFSCRAELDLRPHGLGLFENSSAPRELRTFSLSPDAPRLAAPRLLEVGSERPVSCTLDGLFPASEARVYLALGDQNLSPDVTLEGDAFVATATATASAEQEGARQLVCNVTLGGENRETRENVTIYSFPAPLLTLSEPSVSEGQMVTVTCAAGAQALVTLEGVPAAVPGQPAQLQLNATENDDRRSFFCDATLDVDGETLIKNRSAELRVLYAPRLDDSDCPRSWTWPEGPEQTLRCEARGNPEPSVHCARSDGGAVLALGLLGPVTRALSGTYRCKAANDQGEAVKDVTLTVEYAPALDSVGCPERITWLEGTEASLSCVAHGVPPPDVICVRSGELGAVIEGLLRVAREHAGTYRCEATNPRGSAAKNVAVTVEYGPRFEEPSCPSNWTWVEGSGRLFSCEVDGKPQPSVKCVGSGGATEGVLLPLAPPDPSPRAPRIPRVLAPGIYVCNATNRHGSVAKTVVVSAESPPEMDESTCPSHQTWLEGAEASALACAARGRPSPGVRCSREGIPWPEQQRVSREDAGTYHCVATNAHGTDSRTVTVGVEYRPVVAELAASPPGGVRPGGNFTLTCRAEAWPPAQISWRAPPGALNIGLSSNNSTLSVAGAMGSHGGEYECAATNAHGRHARRITVRVAGPWLWVAVGGAAGGAALLAAGAGLAFYVQSTACKKGEYNVQEAESSGEAVCLNGAGGGAGGAAGAEGGPEAAGGAAESPAEGEVFAIQLTSA [Q9UMF0]”, for which the “percentage of EdU-negative” value with MCF7 (protein concentration 0.015 µM) was determined as 26.9 ± 2.4%; in the data set with MCF7 (protein concentration 0.15 µM) it was 36.9 ± 2.7%; in the data set on hTERT-HMEC (protein concentration 0.015 µM), 5.32 ± 0.067%; in the data set on hTERT-HMEC (protein concentration 0.15 µM), 90.88 ± 0.53%.
On to “MPGPWLLLALALTLNLTGVPGGRAQPEAAQQEAVTAAEHPGLDDFLRQVERLLFLRENIQRLQGDQGEHSASQIFQSDWLSKRQHPGKREEEEEEGVEEEEEEEGGAVGPHKRQHPGRREDEASWSVDVTQHKRQHPGRRSPWLAYAVPKRQHPGRRLADPKAQRSWEEEEEEEEREEDLMPEKRQHPGKRALGGPCGPQGAYGQAGLLLGLLDDLSRSQGAEEKRQHPGRRAAWVREPLEE”, for which the “percentage of EdU-negative” value in the data set on MCF7 (setting [1]) came out at 23.3 ± 4.8%; with MCF7 (setting [2]), 25.8 ± 1.8%; in the data set on hTERT-HMEC (setting [1]), 5.72 ± 0.18%; in the data set with hTERT-HMEC (setting [2]), 5.31 ± 0.67%.
Take “MPGQELRTVNGSQMLLVLLVLSWLPHGGALSLAEASRASFPGPSELHSEDSRFRELRKRYEDLLTRLRANQSWEDSNTDLVPAPAVRILTPEVRLGSGGHLHLRISRAALPEGLPEASRLHRALFRLSPTASRSWDVTRPLRRQLSLARPQAPALHLRLSPPPSQSDQLLAESSSARPQLELHLRPQAARGRRRARARNGDHCPLGPGRCCRLHTVRASLEDLGWADWVLSPREVQVTMCIGACPSQFRAANMHAQIKTSLHRLKPDTVPAPCCVPASYNPMVLIQKTDTGVSLQTYDDLLAKDCHCI”: the “percentage of EdU-negative” value is 23.8 ± 1.7% in the data set on MCF7 (setting [3]), 30.5 ± 2.1% with MCF7 (setting [4]), 4.78 ± 0.13% in the data set on hTERT-HMEC (setting [3]) and 8.07 ± 2.2% in the data set with hTERT-HMEC (setting [4]).
In the case of “MPGRSCVALVLLAAAVSCAVAQHAPPWTEDCRKSTYPPSGPTYRGAVPWYTINLDLPPYKRWHELMLDKAPVLKVIVNSLKNMINTFVPSGKIMQVVDEKLPGLLGNFPGPFEEEMKGIAAVTDIPLGEIISFNIFYELFTICTSIVAEDKKGHLIHGRNMDFGVFLGWNINNDTWVITEQLKPLTVNLDFQRNNKTVFKASSFAGYVGMLTGFKPGLFSLTLNERFSINGGYLGILEWILGKKDVMWIGFLTRTVLENSTSYEEAKNLLTKTKILAPAYFILGGNQSGEGCVITRDRKESLDVYELDAKQGRWYVVQTNYDRWKHPFFLDDRRTPAKMCLNRTSQENISFETMYDVLSTKPVLNKLTVYTTLIDVTKGQFETYLRDCPDPCIGW”, the “percentage of EdU-negative” value was determined as 26.7 ± 2.9% in the data set on MCF7 (setting [5]), 26.1 ± 0.96% in the data set on MCF7 (protein concentration 0.225 µM), 4.75 ± 0.61% in the data set with hTERT-HMEC (setting [5]) and 12.9 ± 1.1% with hTERT-HMEC (protein concentration 0.225 µM).
As to “MPGSPRPAPSWVLLLRLLALLRPPGLGEACSCAPAHPQQHICHSALVIRAKISSEKVVPASADPADTEKMLRYEIKQIKMFKGFEKVKDVQYIYTPFDSSLCGVKLEANSQKQYLLTGQVLSDGKVFIHLCNYIEPWEDLSLVQRESLNHHYHLNCGCQITTCYTVPCTISAPNECLWTDWLLERKLYGYQAQHYVCMKHVDGTCSWYRGHLPLRKEFVDIVQP”, the “percentage of EdU-negative” value with MCF7 (setting [6]) came to 26.2 ± 1.7%; with MCF7 (setting [7]), 27.1 ± 0.65%; with hTERT-HMEC (setting [6]), 5.41 ± 0.19%; with hTERT-HMEC (setting [7]), 6.76 ± 0.1%.
As for “MPKGRQKVPHLDAPLGLPTCLWLELAGLFLLVPWVMGLAGTGGPDGQGTGGPSWAVHLESLEGDGEEETLEQQADALAQAAGLVNAGRIGELQGHYLFVQPAGHRPALEVEAIRQQVEAVLAGHEAVRWHSEQRLLRRAKRSVHFNDPKYPQQWHLNNRRSPGRDINVTGVWERNVTGRGVTVVVVDDGVEHTIQDIAPNYSPEGSYDLNSNDPDPMPHPDVENGNHHGTRCAGEIAAVPNNSFCAVGVAYGSRIAGIRVLDGPLTDSMEAVAFNKHYQINDIYSCSWGPDDDGKTVDGPHQLGKAALQHGVIAGRQGFGSIFVVASGNGGQHNDNCNYDGYANSIYTVTIGAVDEEGRMPFYAEECASMLAVTFSGGDKMLRSIVTTDWDLQKGTGCTEGHTGTSAAAPLAAGMIALMLQVRPCLTWRDVQHIIVFTATRYEDRRAEWVTNEAGFSHSHQHGFGLLNAWRLVNAAKIWTSVPYLASYVSPVLKENKAIPQSPRSLEVLWNVSRMDLEMSGLKTLEHVAVTVSITHPRRGSLELKLFCPSGMMSLIGAPRSMDSDPNGFNDWTFSTVRCWGERARGTYRLVIRDVGDESFQVGILRQWQLTLYGSVWSAVDIRDRQRLLESAMSGKYLHDDFALPCPPGLKIPEEDGYTITPNTLKTLVLVGCFTVFWTVYYMLEVYLSQRNVASNQVCRSGPCHWPHRSRKAKEEGTELESVPLCSSKDPDEVETESRGPPTTSDLLAPDLLEQGDWSLSQNKSALDCPHQHLDVPHGKEEQIC”, the “percentage of EdU-negative” value in the data set with MCF7 (setting [5]) stood at 25.2 ± 2.4%; in the data set with MCF7 (protein concentration 0.225 µM) it was 25.9 ± 0.42%; in the data set on hTERT-HMEC (setting [5]) it was 4.85 ± 0.1%; with hTERT-HMEC (protein concentration 0.225 µM), 5.83 ± 0.0087%.
